T1: UbP_C F195A (human, UniProt Q8WUN7 129-234, F195A)
T1 sequence: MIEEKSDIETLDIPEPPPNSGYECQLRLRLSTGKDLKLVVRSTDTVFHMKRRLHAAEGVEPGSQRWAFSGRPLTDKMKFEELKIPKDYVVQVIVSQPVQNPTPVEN

T2: UbP_C Q219A/I221A (human, UniProt Q8WUN7 129-234, Q219A | I221A)
T2 sequence: T1 sequence with A67F, Q91A, I93A

B1: USP5_UBA1 (first UBA domain of USP5, residues 631-692) (domain or fragment)
chain: MLDESVIIQLVEMGFPMDACRKAVYYTGNSGAEAAMNWVMSHMDDPDFANPLILPGSSGPGS
B2: UbP_C (C-terminal part of DC-UbP, residues 129-234), His-tagged (domain or fragment)
chain: T1 sequence with A67F

Holding throughout (experiment): NMR
The target in one experiment is T1, UbP_C F195A.
The next experiment addresses T2, UbP_C Q219A/I221A.
Experiment [1] addresses B1.

Residue numbers refer to the chain shown, from its start.

For B1, the Kd was > 3000 µM in the experiment with UbP_C F195A and 770 µM with UbP_C Q219A/I221A.
In experiment [1], B2 came in with a Kd of 800 µM.

For orientation: Kd means a measure of binding affinity in units of concentration. A higher Kd goes with weaker binding.

Values taken from article PMC4160250 (2014).
